Source: patent publication US20210024639A1 (AGOMAB THERAPEUTICS, published 2021)

Experiments:
[1] = target: T1, native mouse MET on living mouse cells (mouse, UniProt P16056 25-1379); experiment: cell-based or functional assay
[2] = target: T2, native human MET on living human cells (human, UniProt P08581 25-1390); experiment: cell-based or functional assay
[3] = target: T3, mouse MET-Fc chimeric protein (R&D Systems) (mouse, UniProt P16056 25-929, limits assumed); experiment: competition ELISA, mMET-Fc in solid phase, competitor 0.3 nM biotinylated mHGF
T3 construct: bought (R&D Systems); also called mMET; not shown: Fc
Procedure: (§1) To investigate along this line, we tested the competition between mAbs and HGF by ELISA. Recombinant human and mouse HGF (R&D Systems) were biotinylated at the N-terminus using NHS-LC-biotin (Thermo Scientific). MET-Fc protein, either human or mouse (R&D Systems), was immobilized in solid phase and then exposed to 0.3 nM biotinylated HGF, either human or mouse, in the presence of increasing concentrations of antibodies (0-120 nM).
(§2) A MET-Fc chimeric protein (either human or mouse) was immobilized in solid phase and exposed to a fixed concentration of biotinylated HGF (either human or mouse), in the presence of increasing concentrations of antibodies. […] Antibody-HGF competition is expressed as IC₅₀ (the concentration that achieves 50% competition) and IMAX (the maximum % competition reached at saturation).

[4] = target: T1, native mouse MET on living mouse cells; experiment: flow cytometry, MLP29 cells
Procedure: (§3) We also analysed whether chimeric anti-MET antibodies bound to native human and mouse MET in living cells. […] Antibody binding to cells was analysed by flow cytometry using phycoerythrin-conjugated anti-human IgG1 antibodies (eBioscience) and a CyAn ADP analyser (Beckman Coulter). As a positive control for human MET binding, we used a commercial mouse anti-human MET antibody (R&D Systems) and phycoerythrin-conjugated anti-mouse IgG1 antibodies (eBioscience). As a positive control for mouse MET binding we used a commercial goat anti-mouse MET antibody (R&D Systems) and phycoerythrin-conjugated anti-goat IgG1 antibodies (eBioscience). […] Consistent with the data obtained in ELISA, maximal binding (EMAX) varied depending on antibody, but was similar in human and mouse cells.

[5] = target: T4, human MET-Fc chimeric protein (R&D Systems) (human, UniProt P08581 25-932); experiment: competition ELISA, hMET-Fc in solid phase, competitor 0.3 nM biotinylated hHGF
T4 construct: extracellular domain; bought (R&D Systems); also called hMET; not shown: Fc portion of human IgG1
T4 sequence (P08581 25-932, change not shown): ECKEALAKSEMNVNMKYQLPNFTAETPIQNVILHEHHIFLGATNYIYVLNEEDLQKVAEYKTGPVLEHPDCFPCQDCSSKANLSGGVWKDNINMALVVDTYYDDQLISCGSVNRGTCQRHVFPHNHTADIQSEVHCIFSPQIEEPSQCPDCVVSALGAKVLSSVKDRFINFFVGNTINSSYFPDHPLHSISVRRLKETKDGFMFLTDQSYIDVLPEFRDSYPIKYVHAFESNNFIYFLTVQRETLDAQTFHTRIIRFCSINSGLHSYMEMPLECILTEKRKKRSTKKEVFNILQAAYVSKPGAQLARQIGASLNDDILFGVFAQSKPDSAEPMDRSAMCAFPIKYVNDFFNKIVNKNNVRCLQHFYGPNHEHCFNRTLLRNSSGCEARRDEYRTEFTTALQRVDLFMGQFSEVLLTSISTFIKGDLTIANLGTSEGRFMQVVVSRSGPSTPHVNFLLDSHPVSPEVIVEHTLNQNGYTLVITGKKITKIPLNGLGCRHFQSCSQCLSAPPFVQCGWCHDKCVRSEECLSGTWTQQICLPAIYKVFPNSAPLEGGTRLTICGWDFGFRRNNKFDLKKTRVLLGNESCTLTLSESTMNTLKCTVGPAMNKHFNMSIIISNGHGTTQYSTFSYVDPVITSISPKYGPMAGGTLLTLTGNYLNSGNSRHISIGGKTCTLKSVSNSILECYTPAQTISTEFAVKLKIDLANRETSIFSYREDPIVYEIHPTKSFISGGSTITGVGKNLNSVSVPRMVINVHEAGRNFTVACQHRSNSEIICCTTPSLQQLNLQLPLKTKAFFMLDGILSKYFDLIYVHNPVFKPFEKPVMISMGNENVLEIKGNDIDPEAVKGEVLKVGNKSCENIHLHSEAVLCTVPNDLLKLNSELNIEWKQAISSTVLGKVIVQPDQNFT
Procedure: as §1, §2

[6] = target: T1, native mouse MET on living mouse cells; experiment: cell-based or functional assay; remark: listed apart in the source
[7] = target: T2, native human MET on living human cells; experiment: cell-based or functional assay; remark: listed apart in the source
[8] = target: T2, native human MET on living human cells; experiment: flow cytometry, A549 cells
Procedure: as §3

[9] = target: T5, human MET extracellular domain (ECD) (human, UniProt P08581 25-932); experiment: ELISA, periplasmic Fab on MET ECD
T5 construct: range 1-932; recombinant ECD; also called hMET; human MET ECD
T5 sequence (P08581 25-932 limits assumed, form in doubt): as the sequence (P08581 25-932, change not shown) above
Procedure: (§4) Fab-expressing phages from the libraries described above were produced according to standard phage display protocols. For selection, phages were first adsorbed to immobilized recombinant human MET ECD, washed, and then eluted using trypsin. After two cycles of selection with human MET ECD, two other cycles were performed in the same fashion using mouse MET ECD. In parallel, we also selected phages alternating a human MET ECD cycle with a mouse MET ECD cycle, for a total of four cycles. Phages selected by the two approaches were pooled together and then used to infect TG1 E. coli. Individual colonies were isolated and secretion of Fabs was induced using IPTG (Fermentas). The Fab-containing periplasmic fraction of bacteria was collected and tested for its ability to bind human and mouse MET ECD by Surface Plasmon Resonance (SPR). Human or mouse MET ECD was immobilized on a CM-5 chip using amine coupling in sodium acetate buffer (GE Healthcare). The Fab-containing periplasmic extracts were loaded into a BIACORE 3000 apparatus (GE Healthcare) with a flow rate of 30 μl/min. The Fab off-rates (koff) were measured over a two minute period. Binding of Fabs to human and mouse MET was further characterized by ELISA using MET ECD in solid phase and periplasmic crude extract in solution.
(§5) TABLE 7 Fabs binding to both human MET (hMET) and mouse MET (mMET). Fabs are grouped in families based on their VH CDR3 sequence. Binding of Fabs to human and mouse MET ECD was determined by Surface Plasmon Resonance (SPR) and by ELISA. SPR values represent the koff (s⁻¹). ELISA values represent the Optical Density (OD) at 450 nm (AU, arbitrary units). Both SPR and ELISA were performed using crude periplasmic extracts. Fab concentration in the extract was not determined. Values are the mean of three independent measurements.

[10] = target: T6, mouse MET extracellular domain (ECD) (mouse, UniProt P16056 25-931); experiment: ELISA, periplasmic Fab on MET ECD
T6 construct: range 1-931; recombinant ECD; also called mMET; mouse MET ECD
Procedure: as §4, §5

T2 sequence (P08581 25-1390): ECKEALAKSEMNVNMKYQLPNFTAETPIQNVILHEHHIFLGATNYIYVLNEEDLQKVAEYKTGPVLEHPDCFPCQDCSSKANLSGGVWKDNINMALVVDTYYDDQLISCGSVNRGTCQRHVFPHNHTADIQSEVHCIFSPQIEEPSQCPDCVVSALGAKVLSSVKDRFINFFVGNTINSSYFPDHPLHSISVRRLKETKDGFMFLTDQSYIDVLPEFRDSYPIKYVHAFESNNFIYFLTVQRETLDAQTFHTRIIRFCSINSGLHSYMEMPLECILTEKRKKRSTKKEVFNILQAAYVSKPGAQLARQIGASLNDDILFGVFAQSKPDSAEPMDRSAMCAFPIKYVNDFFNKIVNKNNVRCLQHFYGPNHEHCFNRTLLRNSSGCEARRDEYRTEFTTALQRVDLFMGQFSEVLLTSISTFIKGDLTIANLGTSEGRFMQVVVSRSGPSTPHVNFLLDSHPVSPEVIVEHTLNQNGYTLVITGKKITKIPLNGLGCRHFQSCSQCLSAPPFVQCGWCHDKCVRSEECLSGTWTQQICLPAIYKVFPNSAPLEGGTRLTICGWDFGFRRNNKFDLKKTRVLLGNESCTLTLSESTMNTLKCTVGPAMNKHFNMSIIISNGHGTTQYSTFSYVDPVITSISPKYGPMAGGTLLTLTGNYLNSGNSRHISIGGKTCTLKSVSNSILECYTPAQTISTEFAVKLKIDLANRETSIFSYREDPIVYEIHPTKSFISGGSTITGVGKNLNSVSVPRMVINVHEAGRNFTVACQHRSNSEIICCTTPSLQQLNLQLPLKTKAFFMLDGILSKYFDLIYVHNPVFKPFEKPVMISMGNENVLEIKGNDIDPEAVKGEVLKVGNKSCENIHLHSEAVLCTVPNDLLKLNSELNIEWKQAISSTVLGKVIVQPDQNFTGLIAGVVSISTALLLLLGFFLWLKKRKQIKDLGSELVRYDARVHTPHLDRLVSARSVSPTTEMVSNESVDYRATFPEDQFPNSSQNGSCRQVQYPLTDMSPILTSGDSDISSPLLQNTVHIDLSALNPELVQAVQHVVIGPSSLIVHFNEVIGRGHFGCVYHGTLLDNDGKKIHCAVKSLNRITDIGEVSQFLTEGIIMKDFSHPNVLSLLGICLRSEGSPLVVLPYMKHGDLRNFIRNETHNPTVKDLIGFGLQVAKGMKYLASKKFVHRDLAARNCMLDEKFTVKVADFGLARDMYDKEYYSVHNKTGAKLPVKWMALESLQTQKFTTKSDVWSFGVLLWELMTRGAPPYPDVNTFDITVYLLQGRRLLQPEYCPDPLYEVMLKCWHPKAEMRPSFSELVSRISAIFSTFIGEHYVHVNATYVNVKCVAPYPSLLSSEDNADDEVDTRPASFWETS

B1: chimeric llama-human IgG1 mAb 72F8 (antibody, V domains shown)
VH: ELQLVESGGGLVQPGGSLRLSCAASGFTFSNYVMSWVRQAPGKGLEWVSDTNSGGSTSYADSVKGRFTISRDNAKNTLYLQMNSLKPEDTALYYCARSFFYGMNYWGKGTQVTVSS
VL: QSALTQPPSLSASPGSSVRLTCTLSSGNNIGSYDISWYQQKAGSPPRYLLNYYTDSRKHQDSGVPSRFSGSKDASANAGLLLISGLQPEDEADYYCSAYKSGSYRWVFGGGTHVTVL
For B1, the “protection from staurosporine, viability EC50, MLP29” value [1] was > 32 nM, the “protection from staurosporine, viability EMAX, MLP29” value [1] was 43.8% and the “protection from staurosporine, viability EC50, MCF10A” value [2] was > 32 nM. For the same binder, the “protection from staurosporine, viability EMAX, MCF10A” value [2] was 35.8%, the “IMAX (maximum % competition)” value [3] was 72.8% and the “EMAX (% relative to control)” value [4] was 172%. For the same binder, the “IMAX (maximum % competition)” value [5] was 77.3%, the “cell scattering score, MLP29, 0.001 nM” value [6] was 0 score 0-4 and the “cell scattering score, MLP29, 0.004 nM” value [6] was 0 score 0-4. For the same binder, the “cell scattering score, MLP29, 0.012 nM” value [6] was 0 score 0-4, the “cell scattering score, MLP29, 0.037 nM” value [6] was 0 score 0-4 and the “cell scattering score, MLP29, 0.111 nM” value [6] was 0 score 0-4. For the same binder, the “cell scattering score, MLP29, 0.333 nM” value [6] was 0 score 0-4, the “cell scattering score, MLP29, 1.000 nM” value [6] was 1 score 0-4 and the “cell scattering score, MLP29, 3.000 nM” value [6] was 2 score 0-4. For the same binder, the “cell scattering score, MLP29, 9.000 nM” value [6] was 3 score 0-4, the “cell scattering score, HPAF-II, 0.001 nM” value [7] was 0 score 0-4 and the “cell scattering score, HPAF-II, 0.004 nM” value [7] was 0 score 0-4. The “cell scattering score, HPAF-II, 0.012 nM” value [7] was 0 score 0-4, the “cell scattering score, HPAF-II, 0.037 nM” value [7] was 0 score 0-4 and the “cell scattering score, HPAF-II, 0.111 nM” value [7] was 0 score 0-4. For the same binder, the “cell scattering score, HPAF-II, 0.333 nM” value [7] was 0 score 0-4, the “cell scattering score, HPAF-II, 1.000 nM” value [7] was 1 score 0-4 and the “cell scattering score, HPAF-II, 3.000 nM” value [7] was 2 score 0-4. The “cell scattering score, HPAF-II, 9.000 nM” value [7] was 3 score 0-4 and the “EMAX (% relative to control)” value [8] was 156%.

B2: Fab 76H10 (Fab, V domains shown)
VH: QLQLVESGGGLVQPGGSLRVSCTASGFTFNTYYMTWVRQAPGKGLEWVSDINSGGGTYYADSVKGRFTISRDNAKNTLYLQMNSLKPEDTALYYCVRVRIWPVGYDYWGQGTQVTVSS
VL: QAVVTQEPSLSVSPGGTVTLTCGLSSGSVTTSNYPGWFQQTPGQAPRTLIYNTNNRHSGVPSRFSGSISGNKAALTITGAQPEDEADYYCSLYTGSYTTVFGGGTHLTVL
notes: llama Fab (VH-CH1, lambda VL-CL) with MYC flag, crude periplasmic extract
In the case of B2, the “ELISA OD450” value [9] is reported as 3.7 AU and the “ELISA OD450” value [10] is reported as 3.7 AU.

B3: Fab 71G3 (Fab, V domains shown)
VH: QVQLVESGGGLVQPGGSLRVSCAASGFTFSTYYMSWVRQAPGKGLEWVSDIRTDGGTYYADSVKGRFTMSRDNAKNTLYLQMNSLKPEDTALYYCARTRIFPSGYDYWGQGTQVTVSS
VL: QAVVTQEPSLSVSPGGTVTLTCGLSSGSVTTSNYPGWFQQTPGQAPRTLIYNTNSRHSGVPSRFSGSISGNKAALTIMGAQPEDEADYYCSLYPGSTTVFGGGTHLTVL
notes: as for B2
With B3 the “ELISA OD450” value [9] was 3.46 AU and the “ELISA OD450” value [10] was 3.44 AU.

B4: Fab 71D6 (Fab, V domains shown)
VH: ELQLVESGGGLVQPGGSLRLSCAASGFTFSSYGMSWVRQAPGKGLEWVSAINSYGGSTSYADSVKGRFTISRDNAKNTLYLQMNSLKPEDTAVYYCAKEVRADLSRYNDYESYDYWGQGTQVTVSS
VL: QPVLNQPSALSVTLGQTAKITCQGGSLGARYAHWYQQKPGQAPVLVIYDDDSRPSGIPERFSGSSSGGTATLTISGAQAEDEGDYYCQSADSSGSVFGGGTHLTVL
notes: as for B2
With B4 the “ELISA OD450” value [9] was 3.26 AU and the “ELISA OD450” value [10] was 3.07 AU.

B5: Fab 71C3 (Fab, V domains shown)
VH: QLQLVESGGGLVQPGGSLRLSCAASGFTFSSHAMSWVRQAPGKGLEWVSAINSGGGSTSYADSVKGRFTISRDNAKNTLYLQMNSLKPEDTAVYYCAKELRFDLARYTDYEAWDYWGQGTQVTVSS
VL: SYELTQPSALSVTLGQTAKITCQGGSLGSSYAHWYQQKPGQAPVLVIYDDDSRPSGIPERFSGSSSGGTATLTISGAQAEDEGDYYCQSADSSGNAAVFGGGTHLTVL
notes: as for B2
In the case of B5, the “ELISA OD450” value [9] is reported as 1.65 AU and the “ELISA OD450” value [10] is reported as 1.64 AU.

B6: Fab 71D4 (Fab, V domains shown)
VH: ELQLVESGGGLVQPGGSLRLSCAASGFTFSGYGMSWVRQAPGKGLEWVSDINSGGGSTSYADSVKGRFTISRDNAKNTLYLQMNSLKPEDTAVYYCAKDMRLYLARYNDYEAWDYWGQGTQVTVSS
VL: SSALTQPSALSVTLGQTAKITCQGGSLGSSYAHWYQQKPGQAPVLVIYDDDSRPSGIPERFSGSSSGGTATLTISGAQAEDEGDYYCQSADSSGNAAVFGGGTHLTVL
notes: as for B2
With B6 the “ELISA OD450” value [9] was 0.311 AU and the “ELISA OD450” value [10] was 0.307 AU.

B7: Fab 71A3 (Fab, V domains shown)
VH: EVQLVESGGGLVQPGGSLRLSCAASGFSFKDYDITWVRQAPGKGLEWVSTITSRSGSTSYVDSVKGRFTISGDNAKNTLYLQMNSLKPEDTAVYYCAKVYATTWDVGPLGYGMDYWGKGTLVTVSS
VL: SYELTQPSALSVTLGQTAKITCQGGSLGSSYAHWYQQKPGQAPVLVIYDDDSRPSGIPERFSGSSSGGTATLTISGAQAEDEGDYYCQSADSSGNAAVFGGGTHLTVL
notes: as for B2
In the case of B7, the “ELISA OD450” value [9] is reported as 0.581 AU and the “ELISA OD450” value [10] is reported as 0.524 AU.

B8: Fab 71G2 (Fab, V domains shown)
VH: EVQLQESGGGLVQPGGSLRLSCAASGFTFSIYDMSWVRQAPGKGLEWVSTINSDGSSTSYVDSVKGRFTISRDNAKNTLYLQMNSLKPEDTAVYYCAKVYGSTWDVGPMGYGMDYWGKGTLVTVSS
VL: SSALTQPSALSVSLGQTARITCQGGSLGSSYAHWYQQKPGQAPVLVIYGDDSRPSGIPERFSGSSSGGTATLTISGAQAEDEDDYYCQSTDSSGNTVFGGGTRLTVL
notes: as for B2
With B8 the “ELISA OD450” value [9] was 0.561 AU and the “ELISA OD450” value [10] was 0.543 AU.

B9: Fab 76G7 (Fab, V domains shown)
VH: QVQLVESGGNLVQPGGSLRLSCAASGFTFSNYYMSWVRQAPGKGLEWVSDIYSDGSTTWYSDSVKGRFTISRDNAKNTLSLQMNSLKSEDTAVYYCARVKIYPGGYDAWGQGTQVTVSS
VL: QAGLTQPPSVSGSPGKTVTISCAGNSSDVGYGNYVSWYQQFPGMAPKLLIYLVNKRASGITDRFSGSKSGNTASLTISGLQSEDEADYYCASYTGSNNIVFGGGTHLTVL
notes: as for B2
In the case of B9, the “ELISA OD450” value [9] is reported as 3.2 AU and the “ELISA OD450” value [10] is reported as 3.08 AU.

B10: Fab 74C8 (Fab, V domains shown)
VH: EVQLVESGGGLVQPGGSLRLSCAASGFTFRNYHMSWVRQVPGKGFEWISDINSAGGSTYYADSVKGRFTISRDNAKNTLYLEMNSLKPEDTALYYCARVNVWGVNYWGKGTLVSVSS
VL: QTVVTQEPSLSVSPGGTVTLTCGLSSGSVTTSNYPGWFQQTPGQAPRTLIYNTNSRHSGVPSRFSGSISGNKAALTITGAQPEDEADYYCSLYPGSYTNVFGGGTHLTVL
notes: as for B2
In the case of B10, the “ELISA OD450” value [9] is reported as 2.98 AU and the “ELISA OD450” value [10] is reported as 2.92 AU.

B11: Fab 72F8 (Fab, V domains shown)
VH: ELQLVESGGGLVQPGGSLRLSCAASGFTFSNYVMSWVRQAPGKGLEWVSDTNSGGSTSYADSVKGRFTISRDNAKNTLYLQMNSLKPEDTALYYCARSFFYGMNYWGKGTQVTVSS
VL: QSALTQPPSLSASPGSSVRLTCTLSSGNNIGSYDISWYQQKAGSPPRYLLNYYTDSRKHQDSGVPSRFSGSKDASANAGLLLISGLQPEDEADYYCSAYKSGSYRWVFGGGTHVTVL
notes: as for B2
In the case of B11, the “ELISA OD450” value [9] is reported as 3.38 AU and the “ELISA OD450” value [10] is reported as 3.08 AU.
